This passage reports Kd, koff and kon results from patent US20250161473A1 (GAN AND LEE PHARMACEUTICALS, published 2025).

For test [1], the target named is T1, TROP-2-his (UniProt P09758 27-274).
T1 construct: also called antigen TROP-2-his; not shown: his tag
T1 sequence (looked up): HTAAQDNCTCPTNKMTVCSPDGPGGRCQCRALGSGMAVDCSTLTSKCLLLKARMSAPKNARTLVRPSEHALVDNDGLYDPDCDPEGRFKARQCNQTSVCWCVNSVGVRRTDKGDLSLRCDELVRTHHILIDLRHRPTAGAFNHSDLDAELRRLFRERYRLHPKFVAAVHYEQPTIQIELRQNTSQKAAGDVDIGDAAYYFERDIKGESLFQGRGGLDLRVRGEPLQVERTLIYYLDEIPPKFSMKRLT
Nature of the test: SPR (Biacore), antibody captured on Protein A chip, TROP-2-his flowed over, 1:1 Langmuir fit. The source says:
(§1) In this test example, the affinity of the TROP-2 antibody and the TROP-2-ADC compound obtained according to the above examples to TROP-2 is detected by means of capturing antibody.
(§2) Use the Sensor Chip Protein A biosensor chip (Cytiva) to capture the antibody (TROP-2 antibody or TROP-2-ADC compound), then flow through the antigen TROP-2-his on the surface of the chip, and use the Biacore K8 instrument (Cytiva) Real-time detection of reaction signals to obtain association and dissociation curves. After the dissociation of each experiment cycle, the chip was washed and regenerated with regeneration buffer. After the experiment, GE Biacore K8 Evaluation version 3.0 software was used to fit the data with the (1:1) Langmuir model to obtain the affinity value.
(In SPR one partner is held on a chip, and binding of the other changes the refractive index at the surface.)

Test [2] deals with T1, TROP-2-his. Nature of the test: SPR (Biacore), ADC captured on Protein A chip, TROP-2-his flowed over, 1:1 Langmuir fit.
Text: as §1, §2

For test [3], the target named is T2, human HER3-His antigen (human, UniProt P21860 20-643).
T2 construct: not shown: His tag
Nature of the test: SPR (Biacore 8K), antibody captured on Protein A chip, HER3-His at 0.625-40 nM as analyte. As to the method: (§3) The binding ability of naked antibody, HER3-ADC-19, HER3-ADC-20, HER3-ADC-21 to human HER3-His antigen was determined at 7 different concentrations (0.625-40 nM) using protein A biosensor chip.

Test [4] concerns the target T2, human HER3-His antigen. The test can be described thus: SPR (Biacore 8K), ADC captured on Protein A chip, HER3-His at 0.625-40 nM as analyte. On the procedure:
as §3

B1: anti-human TROP-2 monoclonal antibody (anti-hRS7 antibody) (antibody, human IgG1, kappa, V domains shown)
VH: QVQLQQSGSELKKPGASVKVSCKASGYTFTNYGMNWVKQAPGQGLKWMGWINTYTGEPTYTDDFKGRFAFSLDTSVSTAYLQISSLKADDTAVYFCARGGFGSSYWYFDVWGQGSLVTVSS
VL: DIQLTQSPSSLSASVGDRVSITCKASQDVSIAVAWYQQKPGKAPKLLIYSASYRYTGVPDRFSGSGSGTDFTLTISSLQPEDFAVYYCQQHYITPLTFGAGTKVEIKR
notes: also called Naked antibody (anti-TROP-2 monoclonal antibody); TROP-2 antibody
In test [1], B1 registered a Kd of 0.318 nM.

B2: TROP-2-ADC-23 (antibody, human IgG1, kappa, V domains shown)
VH: QVQLQQSGSELKKPGASVKVSCKASGYTFTNYGMNWVKQAPGQGLKWMGWINTYTGEPTYTDDFKGRFAFSLDTSVSTAYLQISSLKADDTAVYFCARGGFGSSYWYFDVWGQGSLVTVSS
VL: DIQLTQSPSSLSASVGDRVSITCKASQDVSIAVAWYQQKPGKAPKLLIYSASYRYTGVPDRFSGSGSGTDFTLTISSLQPEDFAVYYCQQHYITPLTFGAGTKVEIKR
modifications: drug-linker compound 70 coupled to cysteines of the reduced interchain disulfide bonds; positions not given; drug-linker compound 70 (maleimide linker, exatecan derivative) coupled to cysteines of the reduced interchain disulfide bonds; positions not given; DAR 6.42 for the whole antibody
The molecule B2 had a Kd in test [2] of 0.262 nM.

B3: TROP-2-ADC-3 (antibody, human IgG1, kappa, V domains shown)
VH: QVQLQQSGSELKKPGASVKVSCKASGYTFTNYGMNWVKQAPGQGLKWMGWINTYTGEPTYTDDFKGRFAFSLDTSVSTAYLQISSLKADDTAVYFCARGGFGSSYWYFDVWGQGSLVTVSS
VL: DIQLTQSPSSLSASVGDRVSITCKASQDVSIAVAWYQQKPGKAPKLLIYSASYRYTGVPDRFSGSGSGTDFTLTISSLQPEDFAVYYCQQHYITPLTFGAGTKVEIKR
modifications: drug-linker compound 50 coupled to cysteines of the reduced interchain disulfide bonds; positions not given; drug-linker compound 50 (maleimide linker, exatecan derivative) coupled to cysteines of the reduced interchain disulfide bonds; positions not given; DAR 14.74 for the whole antibody
In test [2], B3 registered a Kd of 0.276 nM.

B4: TROP-2-ADC-19 (antibody, human IgG1, kappa, V domains shown)
VH: QVQLQQSGSELKKPGASVKVSCKASGYTFTNYGMNWVKQAPGQGLKWMGWINTYTGEPTYTDDFKGRFAFSLDTSVSTAYLQISSLKADDTAVYFCARGGFGSSYWYFDVWGQGSLVTVSS
VL: DIQLTQSPSSLSASVGDRVSITCKASQDVSIAVAWYQQKPGKAPKLLIYSASYRYTGVPDRFSGSGSGTDFTLTISSLQPEDFAVYYCQQHYITPLTFGAGTKVEIKR
modifications: drug-linker compound 66 coupled to cysteines of the reduced interchain disulfide bonds; positions not given; drug-linker compound 66 (maleimide linker, exatecan derivative) coupled to cysteines of the reduced interchain disulfide bonds; positions not given; DAR 4.65 for the whole antibody
In test [2], B4 showed a Kd of 0.319 nM.

B5: TROP-2-ADC-4 (antibody, human IgG1, kappa, V domains shown)
VH: QVQLQQSGSELKKPGASVKVSCKASGYTFTNYGMNWVKQAPGQGLKWMGWINTYTGEPTYTDDFKGRFAFSLDTSVSTAYLQISSLKADDTAVYFCARGGFGSSYWYFDVWGQGSLVTVSS
VL: DIQLTQSPSSLSASVGDRVSITCKASQDVSIAVAWYQQKPGKAPKLLIYSASYRYTGVPDRFSGSGSGTDFTLTISSLQPEDFAVYYCQQHYITPLTFGAGTKVEIKR
modifications: drug-linker compound 51 coupled to cysteines of the reduced interchain disulfide bonds; positions not given; drug-linker compound 51 (maleimide linker, exatecan derivative) coupled to cysteines of the reduced interchain disulfide bonds; positions not given; DAR 8.49 for the whole antibody
In the case of B5, the Kd in test [2] stood at 0.293 nM.

B6: TROP-2-ADC-21 (antibody, human IgG1, kappa, V domains shown)
VH: QVQLQQSGSELKKPGASVKVSCKASGYTFTNYGMNWVKQAPGQGLKWMGWINTYTGEPTYTDDFKGRFAFSLDTSVSTAYLQISSLKADDTAVYFCARGGFGSSYWYFDVWGQGSLVTVSS
VL: DIQLTQSPSSLSASVGDRVSITCKASQDVSIAVAWYQQKPGKAPKLLIYSASYRYTGVPDRFSGSGSGTDFTLTISSLQPEDFAVYYCQQHYITPLTFGAGTKVEIKR
modifications: drug-linker compound 68 coupled to cysteines of the reduced interchain disulfide bonds; positions not given; drug-linker compound 68 (maleimide linker, exatecan derivative) coupled to cysteines of the reduced interchain disulfide bonds; positions not given; DAR 4.78 for the whole antibody
On to B6, for which, in test [2], binding was characterised by a dissociation constant (Kd) of 0.275 nM.

B7: anti-human HER3 monoclonal antibody (antibody, human IgG1, kappa, V domains shown)
VH: QVQLQQWGAGLLKPSETLSLTCAVYGGSFSGYYWSWIRQPPGKGLEWIGEINHSGSTNYNPSLKSRVTISVETSKNQFSLKLSSVTAADTAVYYCARDKWTWYFDLWGRGTLVTVSS
VL: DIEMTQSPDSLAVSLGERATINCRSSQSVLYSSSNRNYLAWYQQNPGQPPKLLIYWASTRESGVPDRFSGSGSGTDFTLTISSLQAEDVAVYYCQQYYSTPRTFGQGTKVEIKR
notes: also called Naked antibody; HER3 antibody
With B7, in test [3], binding was characterised by a dissociation constant (Kd) of 1.41 nM, the koff was 0.000363 s⁻¹ and the kon was 257000 M⁻¹ s⁻¹.

B8: HER3-ADC-21 (antibody, human IgG1, kappa, V domains shown)
VH: QVQLQQWGAGLLKPSETLSLTCAVYGGSFSGYYWSWIRQPPGKGLEWIGEINHSGSTNYNPSLKSRVTISVETSKNQFSLKLSSVTAADTAVYYCARDKWTWYFDLWGRGTLVTVSS
VL: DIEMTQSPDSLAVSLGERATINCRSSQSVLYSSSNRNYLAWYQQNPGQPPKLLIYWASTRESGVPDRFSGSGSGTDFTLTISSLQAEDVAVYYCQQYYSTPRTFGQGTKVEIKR
modifications: drug-linker compound 68 coupled to cysteines of the reduced interchain disulfide bonds; positions not given; drug-linker compound 68 (maleimide linker, exatecan derivative) coupled to cysteines of the reduced interchain disulfide bonds; positions not given; DAR 8.00 for the whole antibody
In test [4], B8 showed a Kd of 2.08 nM, a koff of 0.000451 s⁻¹ and a kon of 217000 M⁻¹ s⁻¹.

What is called Kd is the concentration at which binding is half-saturated. One may read the koff as the first-order rate constant of dissociation. Read a high koff as a short-lived complex. For orientation: kon means the second-order rate constant of association. Read a low kon as slow association.
